Experimental findings from patent publication US20250051464A1 (IMMUNOME, published 2025) are described below.

The chains are these.
B1: AB-009814 (antibody, mouse IgG2a, V domains shown)
VH: QVQLQQWGAGLLKPSETLSLTCAVYGGSFSDYYWSWIRQPPGKGLEWIGEVNHRGSINYNPSLKSRVTISVDPSKNQFSLKLTSVTAADTAVYYCAKPLRPHCTNGVCYSGDAFDIWGQGTMVTVAS
VL: SYVLTQPPSVSVAPGQTARITCGGNNIGSKNVHWYQQKPGQAPVLVVYDDSDRPSGIPEQFSGSNSGNTATLTISRVEAGDEADYYCQVWDSSSDHLVFGGGTKLTVL
B2: AB-009812 (antibody, mouse IgG2a, V domains shown)
VH: QVQLQQWGAGLLKPSETLSLTCAVYGGSFSDYYWSWIRQPPGKGLEWIGEVNHSGSINYNNYNPSLKSRVTISVDPSKNQFSLKLTSVTAADTAVYYCAKPLRPHCTNGVCYSGDAFDIWGQGTMVTVAS
VL: SYVLTQPPSVSVAPGQTARITCGGNNIGSKNVHWYQQKPGQAPVLVVYDDSDRPSGIPEQFSGSNSGNTATLTISRVEAGDEADYYCQVWDSSSDHLVFGGGTKLTVL
B3: AB-009813 (antibody, mouse IgG2a, V domains shown)
VH: QVQLQQWGAGLLKPSETLSLTCAVYGGSFSDYYWSWIRQPPGKGLEWIGEVNHAGSINYNNYNPSLKSRVTISVDPSKNQFSLKLTSVTAADTAVYYCAKPLRPHCTNGVCYSGDAFDIWGQGTMVTVAS
VL: SYVLTQPPSVSVAPGQTARITCGGNNIGSKNVHWYQQKPGQAPVLVVYDDSDRPSGIPEQFSGSNSGNTATLTISRVEAGDEADYYCQVWDSSSDHLVFGGGTKLTVL
B4: AB-009816 (antibody, mouse IgG2a, V domains shown)
VH: QVQLQQWGAGLLKPSETLSLTCAVYGGSFSDYYWSWIRQPPGKGLEWIGEVNHRGSINYNNYNPSLKSRVTISVDASKNQFSLKLTSVTAADTAVYYCAKPLRPHCTNGVCYSGDAFDIWGQGTMVTVAS
VL: SYVLTQPPSVSVAPGQTARITCGGNNIGSKNVHWYQQKPGQAPVLVVYDDSDRPSGIPEQFSGSNSGNTATLTISRVEAGDEADYYCQVWDSSSDHLVFGGGTKLTVL
B5: AB-009815 (antibody, mouse IgG2a, V domains shown)
VH: QVQLQQWGAGLLKPSETLSLTCAVYGGSFSDYYWSWIRQPPGKGLEWIGEVNHRGSINYNNYNPSLKSRVTISVDTSKNQFSLKLTSVTAADTAVYYCAKPLRPHCTNGVCYSGDAFDIWGQGTMVTVAS
VL: SYVLTQPPSVSVAPGQTARITCGGNNIGSKNVHWYQQKPGQAPVLVVYDDSDRPSGIPEQFSGSNSGNTATLTISRVEAGDEADYYCQVWDSSSDHLVFGGGTKLTVL
B6: AB-009808 (antibody, mouse IgG2a, V domains shown)
VH: QVQLQQWGAGLLKPSETLSLTCAVYGGSFSDYYWSWIRQPPGKGLEWIGEINHSGSTNYNPSLKSRVTISVDPSKNQFSLKLTSVTAADTAVYYCAKPFRPHCTNGVCYSGDAFDIWGQGTMVTVSS
VL: SYVLTQPPSVSVAPGQTARITCGGNNIGSKNVHWYQQKPGQAPVLVVYDDSDRPSGIPEQFSGSNSGNTATLTISRVEAGDEADYYCQVWDSSSDHLVFGGGTKLTVL
B7: AB-009805 (antibody, V domains shown)
VH: QVQLQQWGAGLLKPSETLSLTCAVYGGSLSDYHWSWIRQPPGKGLEWIGEINHSGSTNYNPSLKSRVTISVDTSKNQFSLKLSSVSAADTAVYYCAKPFRPHCTNGVCHSGDAFDIWGQGTMATVSS
VL: SYVLTQPPSVSVAPGQTARITCGGNNIGSKNVHWYQQKPGQAPVLVVYDDSDRPSGIPEQFSGSNSGNTATLTISRVEAGDEADYYCQVWDSSSDHLVFGGGTKLTVL
B8: AB-009807 (antibody, mouse IgG2a, V domains shown)
VH: QVQLQQWGAGLLKPSETLSLTCAVYGGSFNDYYWSWIRQPPGKGLEWIGEVNHSGSTSYNPSLKSRVTISVDTSKNQFSLKLSSVTAADTAVYYCAKPFRPHCTNGVCYSGDAFDIWGQGTMVTVSS
VL: SYVLTQPPSVSVAPGQTARITCGGNNIGSKNVHWYQQKPGQAPALVVYDDSDRPSGIPEQFSGSNSGNTATLTISRVEAGDEADYYCQVWDSSSDHLVFGGGTKLTVL
B9: AB-010363 (antibody, V domains shown)
VH: QVQLQQWGAGLLKPSETLSLTCAVYGGSFSGYYWSWIRQPPGKGLEWIGEINHRGSINYNNYNPSLKSRVTISVDTSKNQFSLKLSSVTAADTAVYYCAKPLRPHCTNGVCYSGDAFDIWGQGTMVTVAS
VL: SYVLTQPPSVSVAPGQTARITCGGNNIGSKNVHWYQQKPGQAPVLVVYDDSDRPSGIPERFSGSNSGNTATLTISRVEAGDEADYYCQVWDSSSDHVVFGGGTKLTVL
notes: Tested in mIgG2a format
B10: AB-010361 (antibody, mouse IgG2a, V domains shown)
VH: QVQLQQWGAGLLKPSETLSLTCAVYGGSFSGYYWSWIRQPPGKGLEWIGEINHRGSINYNNYNPSLKSRVTISVDTSKNQFSLKLSSVTAADTAVYYCAKPLRPHCTNGVCYSGDAFDIWGQGTMVTVAS
VL: SYVLTQPPSVSVAPGQTARITCGGNNIGSKNVHWYQQKPGQAPVLVVYDDSDRPSGIPEQFSGSNSGNTATLTISRVEAGDEADYYCQVWDSSSDHVVFGGGTKLTVL
notes: Tested with mouse IgG2a constant regions (mIgG2a format)
B11: AB-008873 (mouse IgG2a format) (antibody, V domains shown)
VH: QVQLQQWGAGLLKPSETLSLTCAVYGGSFSDYYWSWIRQPPGKGLEWIGEVNHRGSINYNNYNPSLKSRVTISVDPSKNQFSLKLTSVTAADTAVYYCAKPLRPHCTNGVCYSGDAFDIWGQGTMVTVAS
VL: SYVLTQPPSVSVAPGQTARITCGGNNIGSKNVHWYQQKPGQAPVLVVYDDSDRPSGIPEQFSGSNSGNTATLTISRVEAGDEADYYCQVWDSSSDHLVFGGGTKLTVLG

As a reminder, the EC50 is the concentration at which the effect is half-maximal. By Kd is commonly meant the constant that tells how readily two partners part at equilibrium.

T2 sequence (P29317 437-534 limits assumed): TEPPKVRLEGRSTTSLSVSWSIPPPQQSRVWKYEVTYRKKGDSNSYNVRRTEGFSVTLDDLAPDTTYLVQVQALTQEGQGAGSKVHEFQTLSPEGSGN

For the first assay, the target named is T1, human EphA2 (ephrin receptor A2), on cells (human, UniProt P29317 24-976).
T1 construct: Used for HEK293 transfectants, A549 and other human tumor cell lines
T1 sequence (P29317 24-976 limits assumed): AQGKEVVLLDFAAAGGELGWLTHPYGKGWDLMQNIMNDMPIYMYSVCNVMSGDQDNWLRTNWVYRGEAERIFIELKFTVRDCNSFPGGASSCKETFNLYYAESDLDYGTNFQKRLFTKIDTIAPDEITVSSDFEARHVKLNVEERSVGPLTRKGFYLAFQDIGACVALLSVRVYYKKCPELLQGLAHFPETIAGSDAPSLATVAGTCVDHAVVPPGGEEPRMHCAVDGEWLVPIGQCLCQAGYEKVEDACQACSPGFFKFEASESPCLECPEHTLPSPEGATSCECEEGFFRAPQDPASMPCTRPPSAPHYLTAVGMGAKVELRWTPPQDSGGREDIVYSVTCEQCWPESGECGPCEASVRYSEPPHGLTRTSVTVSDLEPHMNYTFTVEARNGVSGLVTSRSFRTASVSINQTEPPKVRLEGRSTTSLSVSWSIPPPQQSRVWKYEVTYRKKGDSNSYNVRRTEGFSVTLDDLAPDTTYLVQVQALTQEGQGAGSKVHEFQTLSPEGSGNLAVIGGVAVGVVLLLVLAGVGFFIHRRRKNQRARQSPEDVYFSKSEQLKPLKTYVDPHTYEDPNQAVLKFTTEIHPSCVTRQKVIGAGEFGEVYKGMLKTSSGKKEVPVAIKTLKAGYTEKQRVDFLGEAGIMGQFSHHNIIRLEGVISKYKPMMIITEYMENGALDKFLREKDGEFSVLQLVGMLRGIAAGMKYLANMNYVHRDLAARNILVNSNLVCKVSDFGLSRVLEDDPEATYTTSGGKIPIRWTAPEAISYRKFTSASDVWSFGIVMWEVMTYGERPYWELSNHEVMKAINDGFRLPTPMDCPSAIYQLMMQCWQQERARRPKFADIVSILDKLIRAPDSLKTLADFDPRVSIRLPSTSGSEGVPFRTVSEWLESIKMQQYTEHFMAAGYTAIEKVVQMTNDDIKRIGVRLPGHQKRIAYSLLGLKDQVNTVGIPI
Description: flow cytometry on A549 cells. As to the method:
(§1) Surface binding of the antibodies to in vitro grown cell lines was assessed by flow cytometry. Tumor cells were detached from their culture plate using Versene and counted. Cells were staining in BSA-containing buffer with primary antibody for 30 minutes at 4° C. with shaking. Following, cells were washed and stained with secondary PE-labeled antibody for 30 minutes at 4° C. with shaking. Before analysis on an Intellicyt iQue3 scanner, cells were counterstained with DAPI. MedFI values from live, single cells was expressed as fold over isotype control.
In general terms: In flow cytometry, cells or beads pass a laser one at a time.
B1: the “Delta (flow)” value was found to be 407000 and the EC50 stood at 11.5 nM. As for B2, the “Delta (flow)” value was 568000 and the response was half-maximal at 9.6 nM (EC50). The corresponding values for B3 are 578000 and 6.8 nM.

Consider B4, for which the “Delta (flow)” value came out at 670000 and the EC50 stood at 5.5 nM. Consider B5, for which the “Delta (flow)” value was 745000 and the EC50 was 5.5 nM.

A further assay deals with T1, human EphA2 (ephrin receptor A2), on …. Description: flow cytometry binding on A549 cells. As to the method:
as §1
As for B6, the “Flow Delta activity (MedFI)” value is 29500 MedFI.

In the case of B7, the “Flow Delta activity (MedFI)” value came out at 75100 MedFI. B8: the “Flow Delta activity (MedFI)” value was 12700 MedFI.

The next assay addresses T2, C-terminally His-tagged hEphA2-FN2 (Thr437-Asn534+His tag) (human, UniProt P29317 437-534).
T2 construct: SPR analyte; also called FN2 domain of hEphA2
Put plainly: SPR Biacore T200, 25 C, mIgG2a captured by anti-mouse Fc, FN2-His as analyte, steady-state fit, monovalent. As to the method: Binding of antibodies to the FN2 domain of hEphA2 was measured using the Biacore® T200 SPR system at 25° C. using HBS-EP+ buffer (0.01 M HEPES pH 7.4, 0.15 M NaCl, 3 mM EDTA, 0.005% v/v Surfactant P20). Antibodies in mIgG2a format were captured at levels between 475-715 RU via an anti-mouse Fc antibody immobilized to a CM5 chip. Binding was assessed using a titration of C-terminally His-tagged hEphA2-FN2 (Thr437-Asn534+His tag) associated for 30 s or 75 s at 30 uL/min. Data was double-reference subtracted using both a surface without captured antibody and from injections of HBS-EP+ buffer. The equilibrium response was measured at 4 seconds before the end of association with a window of 5 seconds and fit using the Biacore T200 Evaluation Software 3.1 with the Steady State Affinity Model.
A general note: SPR reads the build-up and loss of mass on a sensor chip optically.
Take B9: the affinity, expressed as Kd, was 1310 nM.

On to B10, for which the Kd came out at 1110 nM.

Take B11: the dissociation constant (Kd) is 2260 nM.
